From IntAct's records for PubMed 24358019

B1: RNA polymerase sigma factor RpoH (Escherichia coli (strain K12)), P0AGB3 (parent)
chain: MTDKMQSLALAPVGNLDSYIRAANAWPMLSADEERALAEKLHYHGDLEAAKTLILSHLRFVVHIARNYAGYGLPQADLIQEGNIGLMKAVRRFNPEVGVRLVSFAVHWIKAEIHEYVLRNWRIVKVATTKAQRKLFFNLRKTKQRLGWFNQDEVEMVARELGVTSKDVREMESRMAAQDMTFDLSSDDDSDSQPMAPVLYLQDKSSNFADGIEDDNWEEQAANRLTDAMQGLDERSQDIIRARWLDEDNKSTLQELADRYGVSAERVRQLEKNAMKKLRAAIEA
partner: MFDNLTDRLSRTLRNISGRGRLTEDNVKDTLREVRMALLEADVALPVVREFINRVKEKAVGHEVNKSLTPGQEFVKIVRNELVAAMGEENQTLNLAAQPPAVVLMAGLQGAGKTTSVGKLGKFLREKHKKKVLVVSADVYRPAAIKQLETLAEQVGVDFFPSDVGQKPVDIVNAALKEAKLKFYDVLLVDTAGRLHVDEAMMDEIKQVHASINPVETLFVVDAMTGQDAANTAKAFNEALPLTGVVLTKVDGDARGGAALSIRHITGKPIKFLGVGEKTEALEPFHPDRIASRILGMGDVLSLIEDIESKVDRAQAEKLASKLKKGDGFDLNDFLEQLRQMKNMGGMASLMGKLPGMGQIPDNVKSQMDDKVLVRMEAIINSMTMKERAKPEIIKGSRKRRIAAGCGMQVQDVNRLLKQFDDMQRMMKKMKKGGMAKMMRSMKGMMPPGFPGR

Variants of: B1
Conditions: with srp54_ecoli ffh

Question: Which “effect of a mutation on the interaction” value does the source give for MTDKMQSLALAPVGNLDSYIRAANAWPMLSADEERALAEKLHYHGDLEAAKTLNLSHLRFVVHIARNYAGYGLPQADLIQEGNIGLMKAVRRFNPEVGVRLVSFAVHWIKAEIHEYVLRNWRIVKVATTKAQRKLFFNLRKTKQRLGWFNQDEVEMVARELGVTSKDVREMESRMAAQDMTFDLSSDDDSDSQPMAPVLYLQDKSSNFADGIEDDNWEEQAANRLTDAMQGLDERSQDIIRARWLDEDNKSTLQELADRYGVSAERVRQLEKNAMKKLRAAIEA [I54N] here?
Answer: decreasing interaction strength
